Reference: the nanobody polyreactivity screen of Harvey et al. (2022)

Assay: yeast display, Sf9 membrane polyspecificity reagent, FACS + sequencing; frameworks hold sequencing errors
Outline: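 Polyreactivity labels are assigned by the sorting gate from which each nanobody was recovered. The gates were low and high (top ~1%), set on anti-HA fluorescence for expression and streptavidin fluorescence for reagent binding. Before sorting, galactose-induced (36–48 hours) yeast display cells were stained for 1 hour at 4 °C with 10% biotinylated, detergent-solubilized Sf9 membrane reagent.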

Row | Sequence | polyreactivity (PSR sort gate)
1 | QVQLVESGGGLVQAGGSLRLSCAASGRIFFYYAMGLYRQATGKERELVAAITDSVDSTYYADSVKGRFTISRDNAKNTVYFQMKSLKPEDTAVYYCATDVDWAYGYHYEYWGQGPQVTVSS | low polyreactivity
2 | QVQLVESGGGLVQAGGSLRLSCAASGRIFFYYAMGWYRQAPGKERELVAAISQSGGSSYYADSVKGRFTISRDNAKNTVYLQLTSLKPEDTAVYYCAADDRYYTYGYDYWGQGTQVTVSS | low polyreactivity
3 | QVQLVESGGGLVQAGGSLRLSCAASGRIFGAYAMGWYRQAPGKERELVAAITSRGGNTYYADSVKGRFTISRDNAKNTVYFQMNSLKPEDTAVYYWAARHDKRRQYYVGQSAFDYWGQGTQVTVSS | low polyreactivity
4 | QVQLVESGGGLVQAGGSLRLSCAASGRIFGAYAMGWYRQAPGKERELVASITGRGTSTYYADSVKGRFTISRDNAKNTVYLQMNSLKPEDSAVYYCAADKTVRSSNYDYWGQGTQVTVSS | low polyreactivity
5 | QVQLVESGGGLVQAGGSLRLSCAASGRIFGDNAMGWYRQAPGKEREFVAAISWSGGTTYYADSVKGRFTISRDNAKNTVYLQMNSLKPEDTAVYYCAADYTRGYDYWGQGTQVTVSS | low polyreactivity
6 | QVQLVESGGGLVQAGGSLRLSCAASGRIFGDNAMGWYRQAPGKERELVAAITSGGNTYYADSVKGRFTISRDNAKNTVYLQMNSLKPEDTAVYYCNVADWRRWGYDYWGQGTQVTVSS | low polyreactivity
7 | QVQLVESGGGLVQAGGSLRLSCAASGRIFGFYAMGCYRQAPGKERELVAVITYRDGRTYYADSVKGRFTISRDNEKNTVYLQMNSLKPEDTAVYYCARGYQGRLKYESWGQGTQVTVSS | low polyreactivity
8 | QVQLVESGGGLVQAGGSLRLSCAASGRIFGFYAMGWYRPAPGKERELVARITLSGGRTYYADSVKGRFTISRDNAKNTVYLQMNSLKPEDTAVYYCAADSIGRLWGYGYWGQGTQVTVSS | high polyreactivity
9 | QVQLVESGGGLVQAGGSLRLSCAASGRIFGFYAMGWYRQAPGKERELVARITLSGGRTYYADSVKGRFTISRDNAKNTVYLQMNSLKPEDTAVYYCAAVSYSKRTWSMNYWGQGTQVTVSS | high polyreactivity
10 | QVQLVESGGGLVQAGGSLRLSCAASGRIFGFYTMGWYRQAPGKERELVAVINRGGRTYYADSVKGRFTISRDNAKNTVYLQMNSLKPEDTAVYYCAADYYTQGAYRGMDYWGQGTQVTVSS | high polyreactivity
11 | QVQLVESGGGLVQAGGSLRLSCAASGRIFGGNAMGGYRQAPGKERELVAAITTGGSTNYADSVKGRFTISRDNAKNTVYLQMNSLKPEDTAVYYCNKRQSARLYGDTYDYWGQGTQVTVSS | low polyreactivity
12 | QVQLVESGGGLVQAGGSLRLSCAASGRIFGGNAMGWFRQAPGKERELVAASTTRGGSTSADSVKGRFTISRDNAKNTVYLHMNSLKPEATAVYYCAVARSSHGGPRYLVRTYGYWGQATQVTVSS | low polyreactivity
13 | QVQLVESGGGLVQAGGSLRLSCAASGRIFGGNAMGWYRKAPGTEREVVAAISWIGGTTYYADSVKGRFTISRDNAKNTVYLQMISLKPEDTAVYYCAAYRYRPHDHRYYRYDYWGQGTQVTVSS | high polyreactivity
14 | QVQLVESGGGLVQAGGSLRLSCAASGRIFGGNAMGWYRPAPGKERELVGGISRRGGSTYYADSVKGRFTISRDNAKNTVYLQMYSLKPEDTAVYYCNAYYRYSVFAEKYDYWGQGTQVTVSS | high polyreactivity
15 | QVQLVESGGGLVQAGGSLRLSCAASGRIFGGNAMGWYRQAAGKERELVAGITGSGGSTYYADSVKGRFTISRDNAKNTVYLQMISLKPEDTAVYYCAAGYTYYYPSSGFDYWGQGTQVTVSS | low polyreactivity
16 | QVQLVESGGGLVQAGGSLRLSCAASGRIFGGNAMGWYRQAPGKECELVAAISKGGGSTNYADSVKGRFTISRDNAKNTVYLQMNSLKPEDTAVYYCAAVVSAHADDVDYWGQGTQVTVSS | high polyreactivity
17 | QVQLVESGGGLVQAGGSLRLSCAASGRIFGGYAMGWSRQAPGKERELVAAISNGGSTYYADSVKGRFTISRDNAKNTVYLQMNSLKPEDTAVYYCAARWNWTGYRYDHWGQGTQVTVSS | low polyreactivity
18 | QVQLVESGGGLVQAGGSLRLSCAASGRIFGGYAMGWYRQAPGKEREFVAAITTSGGSTYYADSVKGRFTISRDNAKNTVYFQMNSLKPEDTAVYYCAARGYIPARFVSLVYRYYYWGQGTQVTVSS | high polyreactivity
19 | QVQLVESGGGLVQAGGSLRLSCAASGRIFGGYAMGWYRQAPGKERELVASITGGGTTDYADSVKGRFTISRDNAKNTVYLQMNSLKPEDTAVYYCAKRSHQFGVSRSYNTYYYWGQGTQVTVSS | low polyreactivity
20 | QVQLVESGGGLVQAGGSLRLSCAASGRIFGGYTMGWYRQAHGKERELFAAITGSGGRTYYAYSVKGRFTISRDNAKNTVYLQMNSLKPEDTAVYYCNTVYRYRYYWGEGTQVTVSS | high polyreactivity
21 | QVQLVESGGGLVQAGGSLRLSCAASGRIFGGYTMGWYRQAPGKEREFVAAITSSGGSTYYADSVKGRFTISRDNAKNTVYLQMNSLKPEDTAVYYCAVDDYYYDYDYWGQGTQVTVSS | low polyreactivity
22 | QVQLVESGGGLVQAGGSLRLSCAASGRIFGHYTMGWYRQAPGKERELVAAISWGGVRTYYADSVKGRFTISRDNAKNTVYLQMNSLKPEVTAVYYCAARWRRYVYPDGHLFWYDYWGQGTQVTVSS | high polyreactivity

Row | Sequence | polyreactivity (PSR sort gate)
23 | QVQLVESGGGLVQAGGSLRLSCAASGRIFGHYVMGWYRQAPGKERELVAAISYSGGSTYYADSVKGRFTISRDNAKITVYLQMISLKPEDTAVYYCAARETQDSPYGAYYYWGQGTQVTVSS | high polyreactivity
24 | QVQLVESGGGLVQAGGSLRLSCAASGRIFGINAMGWYRQAPGKERELVASIDGGGSKNYADSVKGRFTISRDNAKNTVYLQMNSLKPEDTAVYYCAKERSEYRSRHQAYRYDYWGQGTQVTVSS | low polyreactivity
25 | QVQLVESGGGLVQAGGSLRLSCAASGRIFGINSMGWYRQAPGKERELVAAITGGGSTYADSVKGRFTISRDNAKNTVYLQMNSLKPEDTAVYYCAAVSPRRYRYDYWGQGTQVTVSS | low polyreactivity
26 | QVQLVESGGGLVQAGGSLRLSCAASGRIFGKYAMGWYRQAPGKERELVAANSRSCASTYYADSVKGRFTISRDNAKNTVYLQMNSLKPEDTAVYYCAAVPPYNYRFRVDYWGQGTQVTVSS | high polyreactivity
27 | QVQLVESGGGLVQAGGSLRLSCAASGRIFGKYAMGWYRQAPGKEWELVAAISSSGGSTYYADSVKGRFTISRDNAKNTVYLQMNSLKPEDTAVYYCNAPQYWRRSYREYDYWGQGTQVTVSS | high polyreactivity
28 | QVQLVESGGGLVQAGGSLRLSCAASGRIFGKYPMGWYRQAPAKERELVAAIRITGGSTYYADSVKGRFTISRDNAKNTVYLQMNSLKPEDTAVYYCAAVYKYADVIYDYWGQGTQVTVSS | high polyreactivity
29 | QVQLVESGGGLVQAGGSLRLSCAASGRIFGKYVMGWYRQAPGKERELVAAIRSSGGSTYYADSVKGRFTISRDNAKNTVYLQLNSLKPEDTAVYYCAKRLHYSAPRYTENDYWGQGTQVTVSS | high polyreactivity
30 | QVQLVESGGGLVQAGGSLRLSCAASGRIFGLYAMGWYRQAPGKERELVAAISVISTGPYYADSVKGRFTISRDNAMNTVYFQMNSLKPEDTAVYYCNADSVQYTPPESDYWGQGTQVTVSS | low polyreactivity
31 | QVQLVESGGGLVQAGGSLRLSCAASGRIFGLYAMGWYRQAPGKERELVAAITDSDGSTYYADSVKGRFTISRDNAKNTVYLQMNSLKPEDTAVYYCNKRLPLIRTSWAYDYWGQGTQVTVSS | low polyreactivity
32 | QVQLVESGGGLVQAGGSLRLSCAASGRIFGLYAMGWYTQAPGKERELVAAYADSVKGRFTISRDNAKNTVYLQMNSRKPVDTAVYYCAKGPLYAGSTIDLRDFNYWGQGTQVTVSS | low polyreactivity
33 | QVQLVESGGGLVQAGGSLRLSCAASGRIFGLYLGWYRQAPGKERELVATITWRGGSTYYADSVKGRFTISRDNAKNTVYLHLNSVKPEDTEVYYCAARGYRGRMGYWGQGTQVTVSS | low polyreactivity
34 | QVQLVESGGGLVQAGGSLRLSCAASGRIFGNYAMGWYRQAPGKERELVAAISGGGSTYYADSVKGRFTISRDNAKNTVYLQMNSLKPEDTAVYYCAARFLWSVFGRKGGFWGQGTQVTVSS | low polyreactivity
35 | QVQLVESGGGLVQAGGSLRLSCAASGRIFGNYAMGWYRQAPGKERELVAAITSGARTYYADSVKGRFTISRDNAKNTVYLQMNSLKPEDTAVYYCAAYHKSYSYRYDYWGQGTQVTVSS | high polyreactivity
36 | QVQLVESGGGLVQAGGSLRLSCAASGRIFGPYAMGWDRQAPGKERELVAAITWRGDRTYYADSVKGRFTISRDNPKNTVYLQMNSLKPEDTAVYYCAARGGRSEYDYWGQGTQVTVSS | low polyreactivity
37 | QVQLVESGGGLVQAGGSLRLSCAASGRIFGPYAMGWYRQAPGKERELVAAITWSSGITYYADSVKGRFTISRDNAKNTVYLQMNSLKPEDTAVYYCAADSRLPYYRIMEYWGQGTQVTVSS | low polyreactivity
38 | QVQLVESGGGLVQAGGSLRLSCAASGRIFGPYAMGWYRQAPGKEREWVAAISYSGGRTRYADSVKGRFTISRDNAKNTVYLQMNSLKPEDTAVYYCNRVIPTQSLRDYYWGQGTQVTVSS | high polyreactivity
39 | QVQLVESGGGLVQAGGSLRLSCAASGRIFGPYTMAWYRQAPRKERELVAAISRRGGSTYYADSVKGRFTISRDNAKNTVYLQMTSLKPEDTAVYYCAAKIYFLAILYDYWGQGTQVTVSS | high polyreactivity
40 | QVQLVESGGGLVQAGGSLRLSCAASGRIFGQNAMGWYRQSPGKERELVAVITSRGTRTYYADSVKGRFTISRDNAKNTVYLQMNSLNQEDTAVYYCAADVYSDNYKTWPYDYWGQGTQVTVSS | low polyreactivity
41 | QVQLVESGGGLVQAGGSLRLSCAASGRIFGQNVMGWYRQAPGKERELVAAITSAGRTYYADSVKGRFTISRDNAKNTVYLQMNSLKPEDTAVYYCAKVVSRKGYGYWGQGTQVTVSS | high polyreactivity
42 | QVQLVESGGGLVQAGGSLRLSCAASGRIFGRNAMGWYIQAPGTERELVAAISKSGTSTYYADSVKGRFTISRDNAKNTVYLQMNSLKPEDTAVYYCAAALPGYGDYYYWGQGTQVTVSS | high polyreactivity
43 | QVQLVESGGGLVQAGGSLRLSCAASGRIFGRNAMGWYRQAPGKERELVAAISSGGSTYYADSVKGRFTISRDNAKNTVYLQMNSLKPEDTAVYFCAVRGSYYNGGRAFESWGQGTQVTVSS | high polyreactivity
